Source: article PMC5811608, “Structure of prothrombin in the closed form reveals new details on the mechanism of activation” (Scientific Reports, 2018)

Biological target: Human recombinant prethrombin-2 (human)
Assay: SPR; Biacore S200; prethrombin-2 amine-coupled (NHS/EDC) to a CM5 chip, 1633 RU; fragment-1 injected, two-fold dilutions 7.4-119 uM, single-cycle kinetics, 35 ul/min; 20 mM HEPES, 150 mM NaCl, 5 mM CaCl2, pH 7.4; referenced to an unmodified CM5 surface
Settings: both partners purified

B1: fragment-1 of prothrombin (domain or fragment)
chain: ANTFLEEVRKGNLERECVEETCSYEEAFEALESSTATDVFWAKYTACETARTPRDKLAACLEGNCAEGLGTNYRGHVNITRSGIECQLWRSRYPHKPEINSTTHPGADLQENFCRNPDSSTTGPWCYTTDPTVRRQECSIPVCGQDQVTVAMTPR
modifications: purchased fragment-1 (presumably plasma-derived): Gla domain gamma-carboxyglutamates, N-glycans and disulfides expected; 5 mM CaCl2 in assay. Mature numbering + 43 = precursor; ends at cleavage site …
Kd: > 200 µM
